Experimental data taken from publication PMC4191985.

Molecular target: BamA^Eco (Escherichia coli) (UniProt P0A940)
Assay: flow cytometry on cells
Details: remark: other sources report otherwise

## CdiA^EC93, Q3YL96 33-3132
  percent of target cells bound to inhibitor cells: 73%
